Target: ALX301 (human)
Assay: SPR

B1: mouse CD47 (natural protein)
chain: QLLFSNVNSIEFTSCNETVVIPCIVRNVEAQSTEEMFVKWKLNKSYIFIYDGNKNSTTTDQNFTSAKISVSDLINGIASLKMDKRDAMVGNYTCEVTELSREGKTVIELKNRTVSWFSPNEKILIVIFPILAILLFWGKFGILTLKYKSSHTNKRIILLLVAGLVLTVIVVVGAILLIPGEKPVKNASGLGLIVISTGILILLQYNVFMTAFGMTSFTIAILITQVLGYVLALVGLCLCIMACEPVHGPLLISGLGIIALAELLGLVYMKFVASNQRTIQPPRNR
- Kd: 3.41 nM
